Measurements published in patent publication US20230183354A1 (IMMIOS HOLDING B V, published 2023).

T1: murine CD103 (mouse, UniProt Q60677 20-1167)
T1 construct: whole, on cells; also called murine CD103+ T cells; mouse CD103
T1 sequence (looked up): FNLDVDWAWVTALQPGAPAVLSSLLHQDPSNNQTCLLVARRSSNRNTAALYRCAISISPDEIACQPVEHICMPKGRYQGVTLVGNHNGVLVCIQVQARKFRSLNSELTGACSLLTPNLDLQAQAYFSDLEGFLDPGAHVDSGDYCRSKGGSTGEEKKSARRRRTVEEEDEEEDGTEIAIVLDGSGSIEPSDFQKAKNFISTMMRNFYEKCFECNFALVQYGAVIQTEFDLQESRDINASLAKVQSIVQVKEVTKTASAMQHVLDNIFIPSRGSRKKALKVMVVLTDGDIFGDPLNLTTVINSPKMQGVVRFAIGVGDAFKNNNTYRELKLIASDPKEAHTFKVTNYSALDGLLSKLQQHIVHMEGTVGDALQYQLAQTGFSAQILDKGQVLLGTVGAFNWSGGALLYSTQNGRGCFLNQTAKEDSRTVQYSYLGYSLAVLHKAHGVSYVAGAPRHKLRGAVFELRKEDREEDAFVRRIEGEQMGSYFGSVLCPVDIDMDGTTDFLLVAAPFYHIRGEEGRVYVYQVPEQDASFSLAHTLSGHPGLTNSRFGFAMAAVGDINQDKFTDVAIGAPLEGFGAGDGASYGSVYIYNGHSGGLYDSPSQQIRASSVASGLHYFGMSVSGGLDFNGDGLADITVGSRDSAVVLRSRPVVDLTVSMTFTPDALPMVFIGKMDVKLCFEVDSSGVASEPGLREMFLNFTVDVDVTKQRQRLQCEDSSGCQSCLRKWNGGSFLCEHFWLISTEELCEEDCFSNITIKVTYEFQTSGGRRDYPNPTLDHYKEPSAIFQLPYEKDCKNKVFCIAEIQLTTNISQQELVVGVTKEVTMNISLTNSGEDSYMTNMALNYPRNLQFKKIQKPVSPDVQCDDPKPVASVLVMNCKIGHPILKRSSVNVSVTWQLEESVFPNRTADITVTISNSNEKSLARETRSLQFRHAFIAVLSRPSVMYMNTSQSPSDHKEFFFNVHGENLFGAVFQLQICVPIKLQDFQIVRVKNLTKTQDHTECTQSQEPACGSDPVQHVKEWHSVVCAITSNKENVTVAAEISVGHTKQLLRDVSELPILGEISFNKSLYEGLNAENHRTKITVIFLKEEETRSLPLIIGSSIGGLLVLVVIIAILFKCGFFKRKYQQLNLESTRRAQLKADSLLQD

B1: hCD103.06A (antibody, mouse IgG1, V domains shown)
VH: QVQLQQPGSELVRPGASVKLSCKASGYTFTSYWMHWVKQRHGQGLEWIGNIYPGSGSTNYDEKFKSKGTLTVDTSSSTAYMHLSSLTSEDSAVYYCTRGVYDNPYYFDYWGQGTTLTVSS
VL: DIQMTQSSSNLSVSLGGRVTITCKASDHINNWLAWYQQKPGNAPRVLISGATSLETGVPSRFSGSGSGKDYTLSITSLQTEDVATYYCQQYWSIPLTFGAGTKLELK
notes: also called clone 06A; hCD103.06 mAb
B2: hCD103.05A (antibody, mouse IgG1, V domains shown)
VH: EVQLQQSGPELEKPGASAKISCKASGYSFTGYNMNWVKQSNGKSLEWIGNIDPYYGGTSYNQKFKGKATLTVDKSSSTAYMQLKSLTSEDSAVYYCARSFYGYDAGSPYNYAMDYWGQGTPVTVSP
VL: DIVMTQSHKFMSTSVGDRVSITCKASQDVGTFVAWYQQKPGQSPKLLIYWASTRHTGVPDRFTGSGSGTDFTLTISNVQSEDLADYFCHQYSSYPYTFGGGTQLEIK
notes: Also tested labelled with AF647, conjugated with Df and labelled with 89Zr; these are written under this molecule; also called clone 05A; hCD103.05 mAb
B3: hCD103.07A (antibody, mouse IgG1, V domains shown)
VH: EVQLQESGPSLVKPSQTLSLTCSVTGDSITSGYWNWIRKFPGNKLEYMGYITYSGSTYYNPSLKSRISITRDTSKNQYYLQLNSVTTEDTATYYCARNYYGSSSMDYWGQGTSVTVSS
VL: DIVMTQSQKFMSTSVADRVSVTCKASQNVGSDVAWYQQKPGQSPKSLIYSASYRYSGVPDRFTGSGSGTDFTLTISNVQSEDLAEYFCQQYNSYPSTFGGGTKLEIK
notes: also called clone 07A
B4: hCD103.01A (antibody, V domains shown)
VH: EVQLQESGPSLVKPSQTLSLTCSVTGDSITSGYWNWIRKFPGNKLEYMGYITYSGSTYYNPSLKSRISITRDTSKNQYYLQLNSVTTEDTATYYCTRHYYGSDAMDYWGQGTSVTVSS
VL: DIVMTQSHKFMSTSVGDRVSITCKASQDVSIAVAWYQQRPGQSPKLLIYSASYRYTGVPDRFTGSGSGTDFTFTISSVQAEDLAVYYCQQHYSTPWTFGGGTKLEIK
notes: Also tested labelled with AF647, conjugated with Df and labelled with 89Zr; these are written under this molecule; also called clone 01A; hCD103.01 mAb

Experiments:
murine CD103 = target: T1, murine CD103; test: flow cytometry on mouse spleen and thymus cells
Experimental: Additional aliquots were stained with relevant isotype controls or as fluorescence minus one controls (“FMO” controls are cells stained with all the fluorophores minus one fluorophore; the relevant isotype controls contain either a directly labeled unspecific isotype antibody or an unspecific isotype antibody combined with secondary detection reagent). Percentage binding of fluorescently labeled mAbs was determined using flow cytometry. Maximum binding was set at 100%. […] Data analysis was performed with FlowJo v10 (Tree Star) and surface receptor levels were expressed as mean fluorescent intensity (MFI).

[1] = target: T2, human CD103 (integrin Alpha-E) / human integrin Beta-7 heterodimer on cells (human, UniProt P38570 19-1179; P26010 20-798); test: flow cytometry competition on CD103+CD8+ T cells; pre-incubation with unlabeled 01A; table n=1
T2 construct: the assay field tells which cells; also called hCD103/hBeta7; CHO.K1-hCD103/hBeta7
T2 sequence (P38570 19-1179 limits assumed, chain 1 of 2): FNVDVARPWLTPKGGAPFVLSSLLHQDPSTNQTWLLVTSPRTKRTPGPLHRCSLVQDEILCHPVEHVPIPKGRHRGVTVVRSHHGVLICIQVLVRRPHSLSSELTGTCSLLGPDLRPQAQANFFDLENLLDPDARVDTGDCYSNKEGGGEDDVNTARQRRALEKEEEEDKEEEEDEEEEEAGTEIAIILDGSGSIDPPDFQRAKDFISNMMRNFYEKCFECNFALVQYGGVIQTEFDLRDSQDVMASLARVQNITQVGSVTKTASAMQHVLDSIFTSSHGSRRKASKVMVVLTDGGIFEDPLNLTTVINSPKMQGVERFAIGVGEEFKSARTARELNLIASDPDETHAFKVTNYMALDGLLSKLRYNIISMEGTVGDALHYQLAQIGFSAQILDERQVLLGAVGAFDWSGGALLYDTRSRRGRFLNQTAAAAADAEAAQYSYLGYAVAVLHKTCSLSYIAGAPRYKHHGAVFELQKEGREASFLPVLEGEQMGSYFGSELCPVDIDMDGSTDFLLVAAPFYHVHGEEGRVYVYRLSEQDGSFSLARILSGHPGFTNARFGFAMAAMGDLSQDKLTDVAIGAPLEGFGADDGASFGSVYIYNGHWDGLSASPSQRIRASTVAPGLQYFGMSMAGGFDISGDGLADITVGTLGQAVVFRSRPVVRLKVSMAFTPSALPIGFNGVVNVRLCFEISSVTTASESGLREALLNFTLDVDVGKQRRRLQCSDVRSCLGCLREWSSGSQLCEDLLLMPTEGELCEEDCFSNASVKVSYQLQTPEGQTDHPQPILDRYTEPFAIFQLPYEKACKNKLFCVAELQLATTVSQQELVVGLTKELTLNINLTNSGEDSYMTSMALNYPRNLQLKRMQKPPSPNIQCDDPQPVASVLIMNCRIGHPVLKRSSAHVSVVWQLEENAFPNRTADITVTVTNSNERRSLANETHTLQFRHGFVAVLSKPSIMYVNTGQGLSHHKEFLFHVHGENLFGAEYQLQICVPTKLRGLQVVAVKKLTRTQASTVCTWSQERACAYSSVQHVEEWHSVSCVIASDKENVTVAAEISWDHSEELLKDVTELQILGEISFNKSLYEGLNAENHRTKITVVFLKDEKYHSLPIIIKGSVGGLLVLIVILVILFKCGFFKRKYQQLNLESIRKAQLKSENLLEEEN
T2 sequence (P26010 20-798 limits assumed, chain 2 of 2): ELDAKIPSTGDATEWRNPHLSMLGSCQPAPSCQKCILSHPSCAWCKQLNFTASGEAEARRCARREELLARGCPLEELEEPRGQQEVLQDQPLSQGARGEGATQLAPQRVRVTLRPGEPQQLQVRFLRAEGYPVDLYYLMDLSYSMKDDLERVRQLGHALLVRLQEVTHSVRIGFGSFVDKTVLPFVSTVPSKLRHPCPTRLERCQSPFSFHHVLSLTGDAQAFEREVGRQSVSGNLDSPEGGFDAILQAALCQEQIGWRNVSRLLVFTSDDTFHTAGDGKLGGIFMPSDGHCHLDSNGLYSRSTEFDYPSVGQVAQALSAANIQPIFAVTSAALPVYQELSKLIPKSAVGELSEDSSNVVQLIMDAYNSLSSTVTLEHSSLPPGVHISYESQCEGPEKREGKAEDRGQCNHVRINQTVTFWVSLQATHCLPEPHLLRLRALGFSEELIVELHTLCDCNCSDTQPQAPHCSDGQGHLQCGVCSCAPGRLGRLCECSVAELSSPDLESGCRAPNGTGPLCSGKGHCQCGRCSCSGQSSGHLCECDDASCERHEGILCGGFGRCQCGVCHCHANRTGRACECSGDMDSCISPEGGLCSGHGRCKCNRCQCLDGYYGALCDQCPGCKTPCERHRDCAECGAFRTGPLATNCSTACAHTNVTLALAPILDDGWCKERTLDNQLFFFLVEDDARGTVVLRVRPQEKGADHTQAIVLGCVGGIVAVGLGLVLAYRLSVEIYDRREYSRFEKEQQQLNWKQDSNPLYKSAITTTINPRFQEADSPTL
Experimental: (§1) Percentage binding of fluorescently labeled mAbs was determined using flow cytometry. Maximum binding was set at 100%.
(§2) Percentage binding of fluorescently labeled mAbs was determined using flow cytometry. Maximum binding was set at 100%

[2] = target: T2, human CD103 (integrin Alpha-E) / human …; test: flow cytometry competition on CD103+CD8+ T cells; pre-incubation with unlabeled 01A; table n=2
Experimental: as §1, §2

[3] = target: T2, human CD103 (integrin Alpha-E) / human …; test: flow cytometry competition on CD103+CD8+ T cells; pre-incubation with unlabeled IgG (f2); table n=1
Experimental: as §2

[4] = target: T2, human CD103 (integrin Alpha-E) / human …; test: flow cytometry competition on CD103+CD8+ T cells; pre-incubation with unlabeled BERACT; table n=1
Experimental: as §1, §2

[5] = target: T2, human CD103 (integrin Alpha-E) / human …; test: cell-based ELISA on CHO.K1-hCD103/hBeta7 cells, relative absorbance, upper panel
Experimental: (§3) Wells were washed with PBS and incubated with Rabbit anti-Mouse/IgG-HRP (1:4000, Dako) or Fab specific Goat anti-Human/IgG-HRP (1:4000; Sigma Aldrich) for 1 h at 37° C. Next, wells were washed with PBS and TMB substrate (KPL) was added. The color reaction was stopped by adding 1M HCl solution and the absorbance was measured by a microplate reader (Thermo Scientific).

[6] = target: T2, human CD103 (integrin Alpha-E) / human …; test: cell-based ELISA on CHO.K1-hCD103/hBeta7 cells, Df-conjugated mAb, relative absorbance, upper panel
Experimental: as §3

[7] = target: T3, recombinant hCD103/hBeta7 Fc-protein (Acro-Biosystems) (human, UniProt P38570 19-1124; P26010 20-723, limits assumed); test: ELISA on coated recombinant human CD103/beta7 Fc-protein, OD450-620, lower right panel titled rhCD103/beta7
T3 construct: Bought protein with no catalog number and no construct limits printed; also called recombinant human CD103/Beta7; recombinant hCD103/beta7; not shown: fusion part of the bought 'Fc-protein'
T3 sequence (P38570 19-1124 limits assumed, chain 1 of 2): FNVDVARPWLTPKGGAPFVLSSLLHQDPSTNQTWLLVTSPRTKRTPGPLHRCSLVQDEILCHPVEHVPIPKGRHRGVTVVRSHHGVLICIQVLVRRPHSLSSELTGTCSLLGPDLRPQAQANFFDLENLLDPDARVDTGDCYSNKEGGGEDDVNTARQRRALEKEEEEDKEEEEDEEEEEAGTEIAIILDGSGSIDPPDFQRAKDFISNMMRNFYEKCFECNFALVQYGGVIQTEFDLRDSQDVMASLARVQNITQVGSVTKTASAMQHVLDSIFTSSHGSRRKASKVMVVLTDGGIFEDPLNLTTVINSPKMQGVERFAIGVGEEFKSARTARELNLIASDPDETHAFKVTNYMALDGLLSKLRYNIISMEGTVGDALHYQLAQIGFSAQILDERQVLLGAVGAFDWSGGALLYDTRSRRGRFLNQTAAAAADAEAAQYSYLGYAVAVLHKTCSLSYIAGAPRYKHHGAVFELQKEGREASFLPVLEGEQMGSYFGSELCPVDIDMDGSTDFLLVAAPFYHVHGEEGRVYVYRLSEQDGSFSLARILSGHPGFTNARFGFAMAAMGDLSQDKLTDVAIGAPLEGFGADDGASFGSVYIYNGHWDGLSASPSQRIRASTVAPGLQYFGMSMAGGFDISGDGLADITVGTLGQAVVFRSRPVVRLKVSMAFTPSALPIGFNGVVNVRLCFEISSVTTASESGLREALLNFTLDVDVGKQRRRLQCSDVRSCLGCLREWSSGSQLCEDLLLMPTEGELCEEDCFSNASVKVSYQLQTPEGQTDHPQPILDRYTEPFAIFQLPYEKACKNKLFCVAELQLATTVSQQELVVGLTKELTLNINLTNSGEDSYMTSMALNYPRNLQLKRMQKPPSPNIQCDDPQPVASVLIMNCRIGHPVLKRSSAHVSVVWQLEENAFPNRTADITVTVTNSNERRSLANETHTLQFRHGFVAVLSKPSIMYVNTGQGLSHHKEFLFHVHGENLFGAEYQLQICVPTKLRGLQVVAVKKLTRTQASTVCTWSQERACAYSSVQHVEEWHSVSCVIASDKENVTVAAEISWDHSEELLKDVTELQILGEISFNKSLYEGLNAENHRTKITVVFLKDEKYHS
T3 sequence (P26010 20-723 limits assumed, chain 2 of 2): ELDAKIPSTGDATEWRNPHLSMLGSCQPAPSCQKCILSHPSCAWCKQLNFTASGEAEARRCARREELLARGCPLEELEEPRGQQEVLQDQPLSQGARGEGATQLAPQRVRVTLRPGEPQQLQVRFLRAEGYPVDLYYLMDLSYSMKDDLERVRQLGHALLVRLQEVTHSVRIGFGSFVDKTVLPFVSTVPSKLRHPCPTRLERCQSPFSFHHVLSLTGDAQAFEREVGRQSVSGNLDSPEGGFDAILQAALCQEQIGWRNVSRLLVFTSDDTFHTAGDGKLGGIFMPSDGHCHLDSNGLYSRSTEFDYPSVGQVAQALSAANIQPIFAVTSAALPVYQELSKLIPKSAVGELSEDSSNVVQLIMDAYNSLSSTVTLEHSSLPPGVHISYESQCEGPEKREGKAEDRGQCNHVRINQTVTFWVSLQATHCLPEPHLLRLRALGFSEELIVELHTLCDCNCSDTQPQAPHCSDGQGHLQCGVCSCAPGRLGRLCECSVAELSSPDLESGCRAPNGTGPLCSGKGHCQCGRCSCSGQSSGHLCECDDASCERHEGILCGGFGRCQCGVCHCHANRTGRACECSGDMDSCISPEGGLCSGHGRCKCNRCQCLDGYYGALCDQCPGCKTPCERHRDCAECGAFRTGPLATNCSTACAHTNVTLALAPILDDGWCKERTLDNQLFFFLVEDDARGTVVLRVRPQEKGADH
Experimental: Protein coated 96-well plates were blocked in protein-free blocking buffer (Pierce) for 1.5 hour at 37° C. Plates were washed and incubated for 1 hour at RT with mAb/Fab in 0.1% Tween-20 in PBS. Next, plates were washed with PBS-T and incubated for 1 hour at RT with goat-anti-mouse IgG-HRP conjugate (Southern Biotech) for mAbs, and goat-anti-human Fab-HRP conjugate (Jackson Immuno Research) for the Fab fragments in 0.1% Tween-20 in PBS. […] Reactions were stopped with 0.5 M H2SO4 and absorbances were read at 450 and 610 nm.

Binder	binding result (murine CD103)	% binding of the fluorescently labeled mAb (IgG pre-incubation = 100) [1]	% binding of the fluorescently labeled mAb (IgG pre-incubation = 100) [2]	% binding of the fluorescently labeled mAb (IgG pre-incubation = 100) [3]	% binding of the fluorescently labeled mAb (IgG pre-incubation = 100) [4]	EC50 (read off the curve) [5]	EC50 (read off the curve) [6]	EC50 (read off the curve) [7]
B1	no binding	96%	99.1%	100%	84.9%			
B2	no binding	2.6%	2.2%	100%	4.2%	~0.04 µg/mL	~0.04 µg/mL	~0.003 µg/mL
B3	no binding	0.7%	0.7%	100%	0.7%			
B4	no binding	1.5%	2.2%	100%	2.5%	~0.04 µg/mL	~0.04 µg/mL	~0.003 µg/mL
